# Measurements published in the DeepSol protein solubility set.
# Experiment: soluble on expression in E. coli; label from the status in PepcDB or PDB records
row,Sequence,soluble on expression in E. coli
1,MIRLAPLITADVDTTTLPGGKASDAAQDFLTLLSEALAGETTTDKAAPQLLVATDKPTTKGEPLVSDILADAQQADLLIPVDETLPVINDEQSTSTPLTTAQTMTLAAVADKNTTKDEKADDLNEDVTASLSALFAMLPGFDNTPKVTDAPSTVLPAEKPTLFTKLTSAQLTTAQPDDAPGTPAQPLTPLVAEAQSKAEVISTPSPVTADASPLITPHQTQPLPTVAAPVLSAPLGSHEWQQSLSQHISLFTRQGQQSAELRLHPQDLGEVQISLKVDDNQAQIQMISPHQHVRAALEAALPVLRTQLAESGIQLGQSNISGESFSGQQQAASQQQQSQRTANHEPLAGEDDDTLPVPVSLQGRVTGNSGVDIFA,not soluble
2,MQSRKRLDAELVRRKIARSREQAVEMIKDGRVHVQGFVAKKPATQVTPEASIRVEDAGLDDWASRGAHKLLGALAEFKSKGLNVSGRRALDAGASTGGFTDVLLRESASEVVAVDVGYGQLIWRLQNDARVKVLDRTNIRNLSLEITDGPCDLMVGDLSFISLKLTLPAIAACMSDGADLLPMVKPQFEVGKERLGHGGVVRDPKLRAEVTEDIALFAQQLGLSFVDVVASPLPGPSGNVEYFLWLKKDSGRSAKGLHEIHEKVAEAVQKGPQ,not soluble
3,MATHVAIIGNGVGGFTTAQALRAEGFEGRISLIGDEPHLPYDRPSLSKAVLDGSLERPPILAEADWYGEARIDMLTGPEVTALDVQTRTISLDDGTTLSADAIVIATGSRARTMALPGSQLPGVVTLRTYGDVQVLRDSWTSATRLLIVGGGLIGCEVATTARKLGLSVTILEAGDELLVRVLGRRIGAWLRGLLTELGVQVELGTGVVGFSGEGQLEQVMASDGRSFVADSALICVGAEPADQLARQAGLACDRGVIVDHCGATLAKGVFAVGDVASWPLRAGGRRSLETYMNAQRQAAAVAAAILGKNVSAPQLPVSWTEIAGHRMQMAGDIEGPGDFVSRGMPGSGAALLFRLQERRIQAVVAVDAPRDFALATRLVEARAAIEPARLADLSNSMRDFVRANEGDLT,soluble
4,MAHHHHHHMNLNKKNEELEKVKIVLTQKIKNLESNLSPKESEIKVMREKIDEMAKSFENNHKKRVNLQIEINEYKMKIKFLHDDLLNYNKTIMNYEKILKNLQDHIKECYLHLHDKKIFNSSFLNLYNKFHKVNDVQNYDAKNVFSEYIRQKEYLENMIEVLKDKLHKETEAFRNEKIKMMNENSLLLKEINDLKMDLNFLKSECHEAQLQNRKMKFLKKRSESKERKKEKKEKKEKKEKKENKDNNEEKNIDIK,soluble
5,MGSDKIHHHHHHMSKLIVPQWPQPKGVAACSSTRIGGVSLPPYDSLNLGAHCGDNPDHVEENRKRLFAAGNLPSKPVWLEQVHGKDVLKLTGEPYASKRADASYSNTPGTVCAVMTADCLPVLFCNRAGTEVAAAHAGWRGLCAGVLEETVSCFADNPENILAWLGPAIGPRAFEVGGEVREAFMAVDAKASAAFIQHGDKYLADIYQLARQRLANVGVEQIFGGDRCTYTENETFFSYRRDKTTGRMASFIWLI,soluble
6,MASPSASADDVKLTADGKICLDDPAEFLKRKPKKSILKMKQDSSLEGKDGRAHFDEMNILATYHPTDKDYGSMKIDEPKTPYHHSDGESECDEGVLGVPTTRPRRVSLGNAIDPEKVAEGLAHPESGKSLSSAEDSEDEADLTEEQRAHRRDFEKKRRAHYNEGAALKHHPELEDDEEEATAAAAGAGGNMEH,not soluble
7,MARPQSKKKQTQIVRRSRPRGRLVPPGRLIAGRDFPEFLQQAVLLSGSLRQAARKLRVSYSTLRGWLGRRCEEPPEAERDLLAEHAAAIRAELDAASEHLATVRGQLDVLEHGE,not soluble
8,AHHHHHHGSQHPRKIYFVDTSFLTFLSVKFSKNMERLMENTVFIELLRRGKGVNYALGKNWGIDFVLLIKVSYDVSDEGTLRCEVNALRKVSREFDFKNALLITWNSKRRIEREEL,soluble
9,MGEVQREKVAVIIGPTAVGKTKLSIDLAKALNGEIISGDSMQIYRTMDIGTAKVTKAEMDGIPHYMIDIKNPEDSFSVAEFQERVRKHIREITERGKLPIIVGGTGLYIQSVLFDYQFTDDAGDVIYREQREKLALERGVEYVHEKLQEVDPESAERIHANNVRRVIRALEIFHTTGEKMSEQIEKQEKELLYDVSLIGLTMDREMLYDRINLRVDLMMEQGLLEEVEGLYNRGIRDCQSIQAIGYKEIYDYFENRASLEDAVSQLKTNSRRYAKRQLTWFRNKMDVTWFDVTDGEKTSEILRYIEGKLQVKSNNSK,not soluble
10,MSASAETVAPEGYRKLLDVQIFKDSPVVGWSGSGMGELETIGDTLPVDTTVTYNGLPTLRLNVQTTVQSGWWISLLTLRGWNTHDLSQYVENGYLEFDIKGKEGGEDFVIGFRDKVYERVYGLEIDVTTVISNYVTVTTDWQHVKIPLRDLMKINNGFDPSSVTCLVFSKRYADPFTVWFSDIKITSEDNEKSAPAIKLEHHHHHH,soluble
11,MSSAPLPPKPIERGYASAGLLARILVSKYMEHIPLYRQSEIYARQGVELSRNTMVRWVSEMADKLRPLYIALNDYVLEAGKVHADDTPVKVLAPGNGKTKTGRLWVYVRDDRNAGSSLPAAVWFAYSADRKGEHPQLHLAKYQGVLQADAYAGYNVLYETGRVKEAGCLAHARRKIHDEDVRRPTEMTQEALRRIAELYDIEAEIRGSPAEERLAVRKARSVQLMQSLYDWIQLQRKTLSKHAEMAKAFDYILNHWNALNEFCRDGRVEIDNNIGENALRSVAVGRKNYLFFGSDKGGESAAIIYSLLVTCKQNEVEPEDWLREVIEKLNDWPSNQVHELLPWNFSSVK,not soluble
12,MGSDKIHHHHHHMENALLVGLSRQVVLERQMDVVANNLANLNTNGFKAERSVFQEFLNTGAHEDNFARPDRRVSFVQDRATYHDLSTGALQETKNPLDVAIDGKGFLVVQTPQGERFTRDGSLTINAQGQLVNGSGFPVLGTGGPIVIQPTDKELSISPDGRVSVVEGTSIIDSLRGKLRVVTFDRPQSLIKQGGNLFAATSDQGTPDTKSMVRQGYVEKSNVNSVLEMTRMIDVTRTYTQISAMLQQESELRKTAIEKLAEVPA,not soluble
13,MGSDKIHHHHHHMRIAILSQGPELYSTKRLVEAATLRGHEVKVINPLECYMNINMRQSSIHIGGEELPPFDAVIPRIGASITFYGSAVLRQFEMMGVYALNDSVGISRSRDKLRSMQLMSRRGIGLPITGFANKPSDIPDLIDMVGGAPLVIKLLEGTQGIGVVLAETRKAAESVIEAFMGLKANIMVQEYIKEANGADIRCFVLGDKVVAAMKRQAMPGEFRSNLHRGGTASLVKLTPEERSVAIRAAKTMGLNVAGVDLLRSNHGPLVMEVNSSPGLEGIEGATAKDVAGAIIEFVEKNALKTKKPTQA,not soluble
14,MHLDVLDLHNFYYRTPLGRVAQRAVRDQVQKLWPDAQGQTVAGFGFSVPLLRPYLEQARRLIALMPGPQGVMPWPVGMGNVSVLCEEGAWPLSTGMVDKLVMLHGLETSEHPSEVLSEAWRVLGPGGRALFIVPSRSGLWARRDGTPFGFGRPYSLNQLEAQLKRHDFTPERALAALFAPPLHQRFWLKTADFWETGGRRFAPWLVGGVLIVEASKQVYAPTRTGLKAAVSKPLRVLEGIPQPLPAPAGRTSDGSCGCPGGC,not soluble
15,SLRFYAACLASYNNGVLHGRWIDASSDTDEMQEEVSAMLRASRFPNVMVKCPNCEGRLELCTVCDGGSREVPSAEEWAIHDYDGLPSSLGEYPGLDKIAAFVELCEEHDMTGEDMAAIVSHFGSVEYAKEELGNNFVGVHESFRAYAEELADEMLSAHDIKADHPLSQYFDYEAYARDLRHSASAVELDEGVAVFCV,soluble
16,MGKGDSIIVAVRVRPFNDREKTRNCKLVIEMPDEETTVIRDPKTNDEKRFTYDHSYWSHDGFSEKKNGYLEPTDPHYADQRRVFEDLGRGVLANAWAGYNCSLFAYGQTGSGKSYSIVGFKNNKGIVPIVCEELFKQIADNKKKNMQFEVFVSMMEIYCEKVRDLLSSTPPPKGGLKVREHPKNGFYVENLTTVPVNSFKEIEAKIEEGTKSRTIAATQMNATSSRAHTIVKITFNQKSSKQAGGTSMKKSEINLVDLAGSERQSAAGTEGDRLKEGIVINQSLTTLGRVIKALHDSQKAKSGKKTQIPYRDSVLTCLLKNALGGNSKTIMIAAISPADINFEETLSTLRFADRAKSIKTNAVVNENQTERALRELREENLRLQSQIQGGTAGDASNEEIEKLRRQLAENQKEMEEMEKSWQQKIAEEAAKHASGASEKVEMEAKKKKMCHLWNLNEDPALTNVIVHFIPVGESVVGNKPTSSGNFIQMSGLSILPQHVTLKNDGNNQIHLSPCSEDLDIFINGKPVHGETQLQQNDRVFFGGNHLYVFNNPTKKGIRTDITYENAQAEIAQNHAAALGNRGLGGGSKRDLILEEELMSTLPLVQRANAMATELGRNVKFEIVLVSPEMRGLTSGLTEIWVKVHNISEDTYFLWEKSRFMNRYYGMQEMYEAKQDGSEDWNMPKERDPFYEPPDSPVFIASSVVFLQSLAYLIDVEEQFPIVDLSGQEIGLLTVGLSPCSTTGKELRGEYVEDPDQLIGKNIAFKVKVISAVGLPRRILKSNCKYRFFGSKKMTTTATVSGNTPAYGHEETFQFKPVTKEVADYLANSNLYITFWGTQRPRGASSRKNSISTIGSNEAREGPNKAKRVERLVHQAKTSENRNISVKALETVLKGVDDNENRKTRKQSMKKAGSTTIKSRSGSKKPKAK,not soluble
17,MGSDKIHHHHHHMKTDTEWLLCDFHVHTNMSDGHLPLGEVVDLFGKHGVDVVSITDHIVDRRTLEQRKRNGEPLGAITEDKFQDYLKRLWREQKRAWEEYGMILIPGVEITNNTDLYHIVAVDVKEYVDPSLPVEEIVEKLKEQNALVIAAHPDRKKQDEEHLSWYLWANMERFKDTFDAWEIANRDDLFNSVGVKKYRYVANSDFHELWHVYSWKTLVKSEKNIEAIKEAIRKNTDVAIYLMRKNRLSSLSDVI,soluble
18,MAHHHHHHMPLVEYVNEEGYRLDGRKEDECRLIKINVGNENIFTDADGFAFYEIGNTKLLSYIQGPTELKKSEEKCSIKCEVFLSPFNVYEKKKKKTKDSVTNEISAYIRNICENIILLDLYKNSEINIFLYIIERDGGVKHAAINTCILALIDAGIAIKYFISACSVLFLQNRILVDGNQLEINSGAPELTMVIELNTHKIVLLEFDAEVPIDIFEAMVRTCMDCCINLGNVMKLTVKENAIKLLCLNNMLNA,not soluble
19,GMVEVSQFKDAMAQLASAVHIVTTSGETGQHGFTASAVCSVTDSPPTLLVCINSNARAYEHFVKNRVLMVNTLTAEQSSLSNIFASPLSQEERFSNASWTTLTTGSPMLQDALINFDCEITEIKHVGTHDILICKIVDIHQSNAKNALVYRNRVYHSV,soluble
20,GPGSMRSAVTCIKSPGAALFTDTATCRTITLSRPDALNVMSLPMVQDLHRLYITEPHPNEDAVYVVRGDGRRSFCAGGDLKALTGPERDTHNPLFYRLEYEVDSHIAVMRRTQVAMWAGHVLGSGVGVSVHSRYRVACETTRFAMPETQIGGANDVATSWVFSSLPICGLGMYLAITGNALQGADVFHAGLATHYIPVEKFGAVEAALAALPSSEGVEECLRGFSEDVAVPPFTLAESAPVLAKAFGTITPWTRLRDIMDVLRADGSAFAASTLEVMERNSPLGMTLALENMKRQHTPGCNTVMESFRGDYTAIQTSIFADELAKGVEALFVTKEKRPQWTVESVDEVDVELVKQQFALTEGVRVSAGGKDGRACFGVFGCYRAQASPVG,soluble
21,KTMLKIKMAEDAEMIDEVVVTALGIKREEKALGYAVQKVGGSKLSTVKPVNIATSLTGKVAGLNVTNSTEFNTAPTLKLRGETPLLVVDGVPYSNISLNDIAADDIESVDVLKGATASALYGARGGSGAIMVTTKKGSQEG,not soluble
